Source: patent US20210115133A1 (NGM BIOPHARMACEUTICALS, published 2021)

T1: human beta klotho expressed on cells (human, UniProt Q86Z14 1-1044)
T1 construct: in the reporter assays HEK293 cells were transfected with a GeneCopoeia human beta klotho plasmid together with human FGFR1c; in the adipocyte assay the beta klotho/FGFR1c is endogenous; also called HuKLB overexpressing cells; huKLB/R1c
T1 sequence: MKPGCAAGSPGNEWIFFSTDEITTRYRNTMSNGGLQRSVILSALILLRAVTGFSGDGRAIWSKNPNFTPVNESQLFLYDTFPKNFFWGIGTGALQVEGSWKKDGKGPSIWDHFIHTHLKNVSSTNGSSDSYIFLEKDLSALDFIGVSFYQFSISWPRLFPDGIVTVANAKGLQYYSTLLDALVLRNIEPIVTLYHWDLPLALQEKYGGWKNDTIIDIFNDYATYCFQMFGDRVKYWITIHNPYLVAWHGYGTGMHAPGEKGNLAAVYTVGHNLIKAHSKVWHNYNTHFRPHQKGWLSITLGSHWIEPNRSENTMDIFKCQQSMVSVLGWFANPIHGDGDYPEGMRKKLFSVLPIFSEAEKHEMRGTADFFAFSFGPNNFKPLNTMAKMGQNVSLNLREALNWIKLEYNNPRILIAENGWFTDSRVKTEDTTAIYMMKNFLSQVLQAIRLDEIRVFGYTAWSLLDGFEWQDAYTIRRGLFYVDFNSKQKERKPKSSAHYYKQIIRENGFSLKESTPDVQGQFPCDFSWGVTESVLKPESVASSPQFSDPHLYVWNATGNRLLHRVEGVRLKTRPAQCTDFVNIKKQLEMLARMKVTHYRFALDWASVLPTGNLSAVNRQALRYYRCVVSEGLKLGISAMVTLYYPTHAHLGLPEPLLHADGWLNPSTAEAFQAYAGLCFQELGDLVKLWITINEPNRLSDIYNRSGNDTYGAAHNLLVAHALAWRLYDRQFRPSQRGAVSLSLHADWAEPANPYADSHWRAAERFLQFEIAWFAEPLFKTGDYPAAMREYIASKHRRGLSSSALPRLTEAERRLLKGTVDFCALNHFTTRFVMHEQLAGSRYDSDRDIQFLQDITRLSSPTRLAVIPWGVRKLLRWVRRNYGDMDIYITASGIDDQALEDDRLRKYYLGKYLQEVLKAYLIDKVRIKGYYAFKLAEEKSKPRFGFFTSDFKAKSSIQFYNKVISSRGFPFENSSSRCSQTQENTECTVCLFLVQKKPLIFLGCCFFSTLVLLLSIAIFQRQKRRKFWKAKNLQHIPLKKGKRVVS

T2: cynomolgus monkey beta klotho expressed on cells (cynomolgus monkey (Macaca fascicularis), UniProt Q86Z14 1-1044 (human entry))
T2 chain: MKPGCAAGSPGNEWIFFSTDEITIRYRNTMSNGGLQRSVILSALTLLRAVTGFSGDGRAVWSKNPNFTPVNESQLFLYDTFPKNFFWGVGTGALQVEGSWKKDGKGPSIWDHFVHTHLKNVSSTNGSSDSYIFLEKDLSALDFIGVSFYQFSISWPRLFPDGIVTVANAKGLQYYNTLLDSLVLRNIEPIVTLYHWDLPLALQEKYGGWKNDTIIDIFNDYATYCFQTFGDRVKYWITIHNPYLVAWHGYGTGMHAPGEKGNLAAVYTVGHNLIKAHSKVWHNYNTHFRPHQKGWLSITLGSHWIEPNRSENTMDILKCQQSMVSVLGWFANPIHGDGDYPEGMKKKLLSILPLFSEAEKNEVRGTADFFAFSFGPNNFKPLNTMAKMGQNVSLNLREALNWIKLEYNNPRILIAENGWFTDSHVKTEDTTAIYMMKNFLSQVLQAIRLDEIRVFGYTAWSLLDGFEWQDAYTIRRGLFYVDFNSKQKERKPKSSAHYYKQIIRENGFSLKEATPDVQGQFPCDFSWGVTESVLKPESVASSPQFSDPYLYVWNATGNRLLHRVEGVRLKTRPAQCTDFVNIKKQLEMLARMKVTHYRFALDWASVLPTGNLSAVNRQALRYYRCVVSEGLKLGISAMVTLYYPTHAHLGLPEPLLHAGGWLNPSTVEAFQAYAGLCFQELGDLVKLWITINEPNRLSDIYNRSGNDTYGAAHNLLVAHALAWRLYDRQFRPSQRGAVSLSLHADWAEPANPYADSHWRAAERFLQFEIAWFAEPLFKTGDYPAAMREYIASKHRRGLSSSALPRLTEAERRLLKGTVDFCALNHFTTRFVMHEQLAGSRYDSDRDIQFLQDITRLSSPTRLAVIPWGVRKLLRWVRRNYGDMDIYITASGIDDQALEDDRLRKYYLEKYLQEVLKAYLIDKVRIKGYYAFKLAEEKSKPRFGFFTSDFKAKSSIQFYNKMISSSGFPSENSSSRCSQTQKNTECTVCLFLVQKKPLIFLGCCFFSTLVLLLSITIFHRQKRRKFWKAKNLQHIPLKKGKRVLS

T3: cynomolgus monkey beta klotho protein (cynomolgus monkey (Macaca fascicularis), UniProt Q86Z14 53-996 (human entry), limits assumed)
T3 construct: Soluble protein injected in Biacore assays; also called Cyno KLB; cyno beta klotho
T3 chain: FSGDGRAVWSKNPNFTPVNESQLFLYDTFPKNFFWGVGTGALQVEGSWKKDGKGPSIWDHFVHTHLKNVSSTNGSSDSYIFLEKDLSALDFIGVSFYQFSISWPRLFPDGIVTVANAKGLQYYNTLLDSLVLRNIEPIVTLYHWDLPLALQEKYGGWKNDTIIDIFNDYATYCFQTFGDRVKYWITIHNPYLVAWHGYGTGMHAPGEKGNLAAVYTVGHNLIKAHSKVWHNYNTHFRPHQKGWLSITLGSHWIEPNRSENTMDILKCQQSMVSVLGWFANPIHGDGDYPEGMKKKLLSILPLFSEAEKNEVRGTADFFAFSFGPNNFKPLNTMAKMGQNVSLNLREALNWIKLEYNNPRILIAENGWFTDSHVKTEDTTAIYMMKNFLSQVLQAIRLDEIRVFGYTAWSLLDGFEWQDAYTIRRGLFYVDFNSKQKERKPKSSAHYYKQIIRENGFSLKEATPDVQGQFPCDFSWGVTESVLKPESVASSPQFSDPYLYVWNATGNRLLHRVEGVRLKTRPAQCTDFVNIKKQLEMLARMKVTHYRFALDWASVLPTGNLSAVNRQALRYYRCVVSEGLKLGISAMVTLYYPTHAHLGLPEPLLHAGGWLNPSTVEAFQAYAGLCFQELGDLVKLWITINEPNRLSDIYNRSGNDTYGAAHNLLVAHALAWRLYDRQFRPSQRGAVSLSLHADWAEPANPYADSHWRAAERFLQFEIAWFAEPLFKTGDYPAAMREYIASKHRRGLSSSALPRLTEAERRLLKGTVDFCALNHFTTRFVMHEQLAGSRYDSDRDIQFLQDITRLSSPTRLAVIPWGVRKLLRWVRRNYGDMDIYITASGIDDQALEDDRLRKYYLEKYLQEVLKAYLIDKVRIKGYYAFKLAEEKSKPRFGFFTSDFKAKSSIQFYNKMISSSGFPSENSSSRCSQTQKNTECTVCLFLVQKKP

T4: human beta klotho protein (human, UniProt Q86Z14 53-997, limits assumed)
T4 construct: also called HuKLB; human beta klotho (R&D Systems)
T4 sequence: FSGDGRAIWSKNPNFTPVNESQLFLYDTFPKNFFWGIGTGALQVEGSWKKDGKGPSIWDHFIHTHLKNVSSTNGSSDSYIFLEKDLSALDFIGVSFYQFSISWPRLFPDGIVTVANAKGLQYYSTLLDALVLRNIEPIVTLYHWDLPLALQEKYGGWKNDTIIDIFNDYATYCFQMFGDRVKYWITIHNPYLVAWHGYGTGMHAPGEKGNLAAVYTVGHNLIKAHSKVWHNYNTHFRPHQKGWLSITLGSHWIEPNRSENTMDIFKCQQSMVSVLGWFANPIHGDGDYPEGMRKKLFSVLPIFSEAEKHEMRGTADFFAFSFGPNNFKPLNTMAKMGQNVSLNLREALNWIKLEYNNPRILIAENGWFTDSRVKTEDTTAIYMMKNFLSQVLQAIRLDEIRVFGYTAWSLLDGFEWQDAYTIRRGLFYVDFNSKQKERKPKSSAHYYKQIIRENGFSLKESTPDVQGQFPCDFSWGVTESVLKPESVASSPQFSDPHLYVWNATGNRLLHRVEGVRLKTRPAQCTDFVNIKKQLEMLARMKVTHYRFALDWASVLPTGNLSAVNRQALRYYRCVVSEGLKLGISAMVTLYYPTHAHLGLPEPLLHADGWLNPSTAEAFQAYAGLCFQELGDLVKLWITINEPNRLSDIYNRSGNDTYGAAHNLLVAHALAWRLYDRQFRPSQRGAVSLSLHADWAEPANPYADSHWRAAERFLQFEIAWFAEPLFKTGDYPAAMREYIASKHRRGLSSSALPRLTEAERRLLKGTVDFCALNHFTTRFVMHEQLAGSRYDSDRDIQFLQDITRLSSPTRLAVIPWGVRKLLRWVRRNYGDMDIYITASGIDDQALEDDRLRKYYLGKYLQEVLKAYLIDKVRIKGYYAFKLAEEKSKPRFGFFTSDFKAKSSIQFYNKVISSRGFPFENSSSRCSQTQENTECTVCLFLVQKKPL


Tests used:
[1] = target: T1, human beta klotho expressed on cells; experiment: FACS competition on HuKLB overexpressing cells; cells pre-incubated with the row's antibody, competitor: labelled 9E19-Alexa647
Procedure: (§1) For example, for competition binding assays by FACS analysis, antibody standards were prepared that were conjugated to a fluorochrome using either A488 or A647 antibody labeling kit (Invitrogen) following manufacturer's instructions. A dose titration of the conjugated antibody standard was evaluated using HuKLB overexpressing cells. The plateau of the maximal signal of antibody binding is EC=100 and the background signal is EC=0. Competition by FACS against the fluorochrome labeled antibody was performed by pre-incubating HuKLB overexpressing cells with hybridoma supernatants for 15 minutes at room temperature. Without washing, an EC=10 concentration of A488 or A647 labelled antibody standard was added. EC=10 for an individual antibody was determined by 10% of signal using the maximum signal as (100%) and background signal as (0%). After 30 minutes at 4° C., cells are washed and analyzed by FACS. […] A partial competing antibody is one sample that show signal between labelled antibody alone and background. Antibodies that show complete competition against the same standard antibody are considered to be in the same bin.
(§2) In exemplary competition binding experiments by FACS, antibody 3I13 or 9E19 was used as an antibody standard fora positive control (competing antibody) or a negative control (labeled antibody alone), respectively. Representative results are shown in Table 5 below reported as mean fluorescence intensity (MFI).

[2] = target: T1, human beta klotho expressed on cells; experiment: FACS competition on HuKLB overexpressing cells; cells pre-incubated with the row's antibody, competitor: labelled 3I13-Alexa488
Procedure: as §1, §2

[3] = target: T1, human beta klotho expressed on cells; experiment: cell-based or functional assay
[4] = target: T2, cynomolgus monkey beta klotho expressed …; experiment: cell-based or functional assay
[5] = target: T3, cynomolgus monkey beta klotho protein; experiment: Biacore SPR; antibody captured on anti-mouse Fc CM5 chip, beta klotho 1.56-25 nM injected, 25 C
Procedure: (§3) Binding affinity measurements were also made in additional Biacore based assays. For example, equilibrium dissociation constant (KD) measurements were carried out with purified antibodies to evaluate their binding to human beta klotho and cyno beta klotho. As mentioned above, anti-mouse Fc antibody (Sigma-Aldrich, St. Louis, Mo.) was immobilized on all four flow cells of a CM5 chip using amine coupling reagents (GE Healthcare LifeSciences, Piscataway, N.J.). Purified antibodies were captured (˜100 RUs) on flow cells 2, 3 and 4 using flow cell 1 as a reference. This was followed by injection of different concentrations of human or cyno beta klotho (1.56 nM to 25 nM, two-fold dilutions in PBS-P buffer) at a flow rate of 70 μL/min and the binding kinetics were evaluated at 25° C.

[6] = target: T4, human beta klotho protein; experiment: as above
Procedure: as §3

| Mean Florescence Intensity (MFI) [1] [MFI] | Mean Florescence Intensity (MFI) [2] [MFI] | HEK293 huKLB/R1c reporter assay EC50 (Experiment - A) [3] [nM] | HEK293 huKLB/R1c reporter assay EC50 (Experiment - B) [3] [nM] | HEK293 cynoKLB/R1c reporter assay EC50 [4] [nM] | Kd [5] [nM] | Kd [6] [nM] | Binder |
| --- | --- | --- | --- | --- | --- | --- | --- |
| 27.8 | 8.1 | 0.333 | 1.99 | 0.438 | 1.9 | 0.4 | anti-beta klotho monoclonal antibody 3I13 (antibody, V domains shown, Murine monoclonal antibody from a hybridoma (captured by anti-mouse Fc); also called 3I13 - Alexa488) VH: QVQLQQSGPELVKPGASVKISCKTSGYTFTEYTMHWVKQSHGKSLEWIGSFNPDSGGTSYNQKFKGKATLTVDKSSSTAYMELRSLTSEDSAVYYCARDDGYSTRYWYFDVWGAGTTVTVSS VL: DIQMTQSPASLSASVGETVTITCGASENIYGALNWFQRKQGKSPQLLIYGATILADGMSSRFSGSGSGRQYSLKISSLHPDDVATYYCQNVLSTPYTFGGGTKLEIK |
| 25.7 | 10.2 | – | – | – | 12.2 | 4.8 | anti-beta klotho monoclonal antibody 2J21 (antibody, V domains shown, Murine monoclonal antibody from a hybridoma) VH: EVQLQQSGPELVKPGASVKISCKTSGYTFTEYIMHWVKQSHGKSLEWIGNIDPNTGGTSYNQKFKGKATLTVDKSSITAFMELRSLTSEDSAVYYCARDDGYSTRYWYFDVWGAGTTVTVSS VL: DIQMTQSPPSLSASVGETVTITCGASENIYGALNWYQRKQGKSPQLLIYGATNLADGMSSRFSGSGSGRQYSLKISSLHPDDVATYYCQNVLSTPYTFGGGTKLEIK |
| 28.5 | 9.1 | – | – | – | 3.2 | 0.92 | anti-beta klotho monoclonal antibody 4A2 (antibody, V domains shown, Murine monoclonal antibody from a hybridoma) VH: EVQLQQSGPELVKPGTSVKISCKTSGYTFTEYTMYWVKQSHGKSLEWIGGFNPNYGGASYNQKFKDKATLTVDKSSSTAYMELRSLTSEDSAVYYCARDDGYSTRYWYFDVWGAGTTVTVSS VL: DIQMTQSPASLSASVGETVTITCGASENIYGALNWYQRKQGKSPQLLIYGATNLADGMSSRFSGSGSGRQYSLKISSLHPDDVATYYCQNVLSTPYTFGGGTKLEIK |
